The target of the assay is Tula virus (TULV) nonstructural protein NSs, strain Lodz, in infected cells (Tula virus, strain Lodz). In words: FRET or BRET.

In article PMC3323627 one finds FRET efficiency data, which are given here for one substance.

“ACBD3 protein, endogenous in common vole (Microtus arvalis) kidney cells (natural protein)”: the FRET efficiency was 20%.
